Experimental data as given in patent US20240026036A1.

Molecular target: Recombinant human TNFα (R&D Systems) (human) (UniProt P01375)
Sequence (P01375 77-233 limits assumed): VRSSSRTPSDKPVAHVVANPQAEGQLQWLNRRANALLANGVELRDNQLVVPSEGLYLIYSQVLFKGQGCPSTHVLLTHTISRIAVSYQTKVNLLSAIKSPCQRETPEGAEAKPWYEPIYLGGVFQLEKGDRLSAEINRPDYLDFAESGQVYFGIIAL

An IC50, inhibition of TNFα-induced Caspase 3 activity in U937 cells of 0.144 nM was found for etanercept (Fc fusion) in this work.
